Results as given in US20190153112A1 (IMMUTEP S A S, published 2019).

Columns and labels:
[1] = target: human LAG-3 protein (Lymphocyte activation gene-3) on the cell surface (human) (UniProt P18627); test: flow cytometry on CD8+ cells of SEB-stimulated PBMCs (Donor 1); antibody 0.4 ng/ml
[2] = target: human LAG-3 protein (Lymphocyte activation gene-3) on the cell surface (human) (UniProt P18627); test: flow cytometry on CD8+ cells of SEB-stimulated PBMCs (Donor 1); antibody 10000 ng/ml
[3] = target: human LAG-3 protein (Lymphocyte activation gene-3) on the cell surface (human) (UniProt P18627); test: flow cytometry on CD4+ cells of SEB-stimulated PBMCs (Donor 1); antibody 541 ng/ml
[4] = target: human LAG-3 protein (Lymphocyte activation gene-3) on the cell surface (human) (UniProt P18627); test: flow cytometry on CD8+ cells of SEB-stimulated PBMCs (Donor 1); antibody 29 ng/ml
[5] = target: human LAG-3 protein (Lymphocyte activation gene-3) on the cell surface (human) (UniProt P18627); test: flow cytometry on CD8+ cells of SEB-stimulated PBMCs (Donor 1); antibody 126 ng/ml
[6] = target: human LAG-3 protein (Lymphocyte activation gene-3) on the cell surface (human) (UniProt P18627); test: flow cytometry on CD8+ cells of SEB-stimulated PBMCs (Donor 1); antibody 541 ng/ml
[7] = target: human LAG-3 protein (Lymphocyte activation gene-3) on the cell surface (human) (UniProt P18627); test: flow cytometry on CD4+ cells of SEB-stimulated PBMCs (Donor 1); antibody 7 ng/ml
[8] = target: human LAG-3 protein (Lymphocyte activation gene-3) on the cell surface (human) (UniProt P18627); test: flow cytometry on CD8+ cells of SEB-stimulated PBMCs (Donor 1); antibody 2326 ng/ml
[9] = target: human LAG-3 protein (Lymphocyte activation gene-3) on the cell surface (human) (UniProt P18627); test: flow cytometry on LAG-3-transfected CHO cells; antibody 2000 ng/ml
[10] = target: IMP321 (recombinant soluble human LAG-3Ig fusion protein) (human) (UniProt P18627); test: FACS, LAG-3Ig-Alexa 488 (1 µg/ml) pre-incubated with antibody 3300 ng/ml, then bound to Raji (MHC class II+) cells
[11] = target: IMP321 (recombinant soluble human LAG-3Ig fusion protein) (human) (UniProt P18627); test: FACS, LAG-3Ig-Alexa 488 (1 µg/ml) pre-incubated with antibody 89 ng/ml, then bound to Raji (MHC class II+) cells
[12] = target: human LAG-3 protein (Lymphocyte activation gene-3) on the cell surface (human) (UniProt P18627); test: flow cytometry on LAG-3-transfected CHO cells; antibody 500 ng/ml
[13] = target: human LAG-3 protein (Lymphocyte activation gene-3) on the cell surface (human) (UniProt P18627); test: flow cytometry on CD4+ cells of SEB-stimulated PBMCs (Donor 1); antibody 2326 ng/ml
[14] = target: human LAG-3 protein (Lymphocyte activation gene-3) on the cell surface (human) (UniProt P18627); test: flow cytometry on CD8+ cells of SEB-stimulated PBMCs (Donor 1); antibody 7 ng/ml
[15] = target: IMP321 (recombinant soluble human LAG-3Ig fusion protein) (human) (UniProt P18627); test: FACS, LAG-3Ig-Alexa 488 (1 µg/ml) pre-incubated with antibody 297 ng/ml, then bound to Raji (MHC class II+) cells
[16] = target: IMP321 (recombinant soluble human LAG-3Ig fusion protein) (human) (UniProt P18627); test: FACS, LAG-3Ig-Alexa 488 (1 µg/ml) with antibody 0 ng/ml (no-antibody value), bound to Raji (MHC class II+) cells
[17] = target: human LAG-3 protein (Lymphocyte activation gene-3) on the cell surface (human) (UniProt P18627); test: flow cytometry on CD4+ cells of SEB-stimulated PBMCs (Donor 1); antibody 10000 ng/ml
[18] = target: human LAG-3 protein (Lymphocyte activation gene-3) on the cell surface (human) (UniProt P18627); test: flow cytometry on LAG-3-transfected CHO cells; antibody 0 ng/ml (no-antibody background)
[19] = target: human LAG-3 protein (Lymphocyte activation gene-3) on the cell surface (human) (UniProt P18627); test: flow cytometry on LAG-3-transfected CHO cells; antibody 10000 ng/ml
[20] = target: human LAG-3 protein (Lymphocyte activation gene-3) on the cell surface (human) (UniProt P18627); test: flow cytometry on CD4+ cells of SEB-stimulated PBMCs (Donor 1); antibody 0 ng/ml (no-antibody background)
[21] = target: IMP321 (recombinant soluble human LAG-3Ig fusion protein) (human) (UniProt P18627); test: FACS, LAG-3Ig-Alexa 488 (1 µg/ml) pre-incubated with antibody 990 ng/ml, then bound to Raji (MHC class II+) cells
[22] = target: IMP321 (recombinant soluble human LAG-3Ig fusion protein) (human) (UniProt P18627); test: cell-based or functional assay
[23] = target: human LAG-3 protein (Lymphocyte activation gene-3) on the cell surface (human) (UniProt P18627); test: flow cytometry on CD4+ cells of SEB-stimulated PBMCs (Donor 1); antibody 126 ng/ml
[24] = target: IMP321 (recombinant soluble human LAG-3Ig fusion protein) (human) (UniProt P18627); test: FACS, LAG-3Ig-Alexa 488 (1 µg/ml) pre-incubated with antibody 11000 ng/ml, then bound to Raji (MHC class II+) cells
[25] = target: human LAG-3 protein (Lymphocyte activation gene-3) on the cell surface (human) (UniProt P18627); test: flow cytometry on CD8+ cells of SEB-stimulated PBMCs (Donor 1); antibody 0 ng/ml (no-antibody background)
[26] = target: human LAG-3 protein (Lymphocyte activation gene-3) on the cell surface (human) (UniProt P18627); test: flow cytometry on CD4+ cells of SEB-stimulated PBMCs (Donor 1); antibody 1.6 ng/ml
[27] = target: human LAG-3 protein (Lymphocyte activation gene-3) on the cell surface (human) (UniProt P18627); test: flow cytometry on CD4+ cells of SEB-stimulated PBMCs (Donor 1); antibody 29 ng/ml
[28] = target: IMP321 (recombinant soluble human LAG-3Ig fusion protein) (human) (UniProt P18627); test: FACS, LAG-3Ig-Alexa 488 (1 µg/ml) pre-incubated with antibody 27 ng/ml, then bound to Raji (MHC class II+) cells
[29] = target: human LAG-3 protein (Lymphocyte activation gene-3) on the cell surface (human) (UniProt P18627); test: flow cytometry on CD8+ cells of SEB-stimulated PBMCs (Donor 1); antibody 1.6 ng/ml
[30] = target: human LAG-3 protein (Lymphocyte activation gene-3) on the cell surface (human) (UniProt P18627); test: flow cytometry on CD4+ cells of SEB-stimulated PBMCs (Donor 1); antibody 0.4 ng/ml
[31] = target: T1, IMP321 (recombinant soluble human LAG-3Ig fusion protein) (human, UniProt P18627 23-450); test: Biacore T200 SPR, antibody immobilized on C1 chip, IMP321 0.078-2.5 nM as analyte, 25 °C, 1:1 fit, average of three runs
T1 construct: extracellular domain; also called sLAG-3Ig; LC1
T1 sequence (looked up): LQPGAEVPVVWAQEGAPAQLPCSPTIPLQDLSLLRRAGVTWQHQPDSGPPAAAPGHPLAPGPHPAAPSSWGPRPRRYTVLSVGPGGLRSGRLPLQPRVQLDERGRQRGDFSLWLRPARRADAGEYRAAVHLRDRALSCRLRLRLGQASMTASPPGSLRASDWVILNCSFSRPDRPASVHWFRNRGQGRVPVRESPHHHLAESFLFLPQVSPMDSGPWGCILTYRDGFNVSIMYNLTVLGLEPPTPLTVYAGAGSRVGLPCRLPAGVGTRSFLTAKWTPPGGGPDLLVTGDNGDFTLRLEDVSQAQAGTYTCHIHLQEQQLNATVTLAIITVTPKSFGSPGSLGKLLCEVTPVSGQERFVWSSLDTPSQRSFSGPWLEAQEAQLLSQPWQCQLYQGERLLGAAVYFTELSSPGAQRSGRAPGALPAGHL
Protocol: A Biacore™ surface plasmon resonance analysis was performed using the chimeric antibody Chim13E2IgG4 (comprising the chimeric heavy chain 13E2IgG4mut, and the chimeric light chain 13E2IgK, described in Example 17), or the humanized 13E2 antibody (IMP761) described in Example 18, covalently immobilized to a C1 sensor chip. The coating was performed in 10 mM sodium acetate, pH 5.0, to reach 13±1 RU. The recombinant human LAG-3Ig protein (IMP321) was then passed over the captured antibodies at 6 different concentrations, ranging from 0.078-2.5 nM, in analysis buffer (10 mM HEPES pH 7.4, 150 mM NaCl, 3 mM EDTA, 0.05% Tween 20) at 25° C., with regeneration in every cycle. The analysis was carried out on Biacore™ T200 and the data was fitted using the kinetic global fit (Langmuir 1:1) model. The kinetics parameters are recorded in Table 29, and represent the average of three runs.

human LAG-3 protein (Lymphocyte activation gene-3) on the cell surface (human), sequence (P18627 other isoform, or with tags, fused parts or gaps): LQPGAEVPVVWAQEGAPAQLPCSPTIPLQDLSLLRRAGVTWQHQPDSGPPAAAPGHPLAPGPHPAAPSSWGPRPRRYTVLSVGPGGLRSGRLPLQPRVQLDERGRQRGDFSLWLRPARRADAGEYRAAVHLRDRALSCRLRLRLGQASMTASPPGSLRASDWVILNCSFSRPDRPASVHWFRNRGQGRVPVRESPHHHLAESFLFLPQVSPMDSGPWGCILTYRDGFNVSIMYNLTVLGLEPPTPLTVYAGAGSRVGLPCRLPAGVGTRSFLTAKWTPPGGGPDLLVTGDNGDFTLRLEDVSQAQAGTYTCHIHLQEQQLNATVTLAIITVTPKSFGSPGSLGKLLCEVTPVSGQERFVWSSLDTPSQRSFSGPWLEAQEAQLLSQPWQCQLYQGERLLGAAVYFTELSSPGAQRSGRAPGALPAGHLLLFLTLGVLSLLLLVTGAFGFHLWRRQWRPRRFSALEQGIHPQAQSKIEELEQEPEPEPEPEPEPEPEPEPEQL

Molecule: isotype control antibody (mIgG1)
- MFI [1]: 112 MFI
- MFI [2]: 140 MFI
- MFI [3]: 116 MFI
- MFI [4]: 110 MFI
- MFI [5]: 115 MFI
- MFI [6]: 120 MFI
- MFI [7]: 110 MFI
- MFI [8]: 137 MFI
- MFI [9]: 251 MFI
- MFI of sLAG-3Ig-Alexa 488 [10]: 359 MFI
- MFI of sLAG-3Ig-Alexa 488 [11]: 324 MFI
- MFI [12]: 168 MFI
- MFI [13]: 113 MFI
- MFI [14]: 114 MFI
- MFI of sLAG-3Ig-Alexa 488 [15]: 373 MFI
- MFI of sLAG-3Ig-Alexa 488 [16]: 284 MFI
- MFI [17]: 116 MFI
- MFI [18]: 156 MFI
- MFI [19]: 440 MFI
- MFI [20]: 106 MFI
- MFI of sLAG-3Ig-Alexa 488 [21]: 361 MFI
- [CCL4] in THP-1 monocytic cells supernatant; IMP321 20 ng/ml pre-incubated with antibody 2 ng/ml [22]: 2050 pg/mL
- [CCL4] in THP-1 monocytic cells supernatant; IMP321 20 ng/ml pre-incubated with antibody 20 ng/ml [22]: 2140 pg/mL
- [CCL4] in THP-1 monocytic cells supernatant; IMP321 20 ng/ml pre-incubated with antibody 200 ng/ml [22]: 2220 pg/mL
- [CCL4] in THP-1 monocytic cells supernatant; IMP321 20 ng/ml pre-incubated with antibody 2000 ng/ml [22]: 2260 pg/mL
- [CCL4] in THP-1 monocytic cells supernatant; IMP321 20 ng/ml pre-incubated with antibody 20000 ng/ml [22]: 2900 pg/mL
- [CCL4] in THP-1 monocytic cells supernatant; IMP321 20 ng/ml, antibody 0 ng/ml (no-antibody value) [22]: 2110 pg/mL
- MFI [23]: 109 MFI
- MFI of sLAG-3Ig-Alexa 488 [24]: 328 MFI
- MFI [25]: 112 MFI
- MFI [26]: 127 MFI
- MFI [27]: 108 MFI
- MFI of sLAG-3Ig-Alexa 488 [28]: 254 MFI
- MFI [29]: 116 MFI
- MFI [30]: 106 MFI

B1: humanized 13E2 monoclonal antibody IMP761 (antibody, human IgG4 S228P, kappa, V domains shown)
VH: QITLKESGPTLVKPTQTLTLTCTFSGFSLSTSGMGLGWIRQPPGKTLEWLTHIWWDDIKRYNPDLRSRLSITKDTSKNQVVLTMTNMDPLDTGTYYCARIVEGSYSSSYFDVWGQGTLVTVSS
VL: DIVMTQTPSSLSASVGDRVTITCKASQDVIFDVAWYQQRPGQAPKLLIYSASSRVSGVPSRFSGSGSGTDFTLTISSLQPEDFATYYCQQHYSTPYTFGQGTRLDIKR
notes: Human IgG4 (S228P) with kappa light chain; also called humanized 13E2 IgG4; VH4/VL3
- Kd [31]: 22.8 pM
- koff [31]: 0.00066 s⁻¹
- kon [31]: 2.9e+07 M⁻¹ s⁻¹

B2: chimeric 13E2-human IgG4 antibody Chim13E2IgG4 (antibody, V domains shown)
VH: QVTLKESGPGILQPSQTLSLTCSFSGFSLSTSGMGLGWIRQPSGKGLEWLTHIWWDDIKRYNPDLRSRLTISKDTSSSQIFLKIASVDTADTATYYCARIVEGSYSSSYFDVWGAGTTVTVSS
VL: DIVMTQPHKFMSTSVEDRVTITCKASQDVIFDVAWYQQKPGQSPKLLIYSASSRVSGVPDRFTGSGSGTDFTFTISSVQAEDLAVYYCQQHYSTPYTFGGGTTLEIKR
notes: The light chain is the 13E2 VL with wild-type human kappa; also called chimeric 13E2 IgG4; heavy chain 13E2IgG4mut
- Kd [31]: 21.9 pM
- koff [31]: 0.00064 s⁻¹
- kon [31]: 2.9e+07 M⁻¹ s⁻¹
